In publication PMC3479173:
Positions count from the first letter of the chain named.

T1: THAP1 THAP domain WT (human, UniProt Q9NVV9 1-81)
T1 sequence: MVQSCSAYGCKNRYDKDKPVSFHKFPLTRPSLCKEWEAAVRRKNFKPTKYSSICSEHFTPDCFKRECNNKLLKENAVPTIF

T2: THAP1 THAP domain Y8C (human, UniProt Q9NVV9 1-81, Y8C)
T2 sequence: T1 sequence with Y8C

T3: THAP1 THAP domain F81L (human, UniProt Q9NVV9 1-81, F81L)
T3 sequence: T1 sequence with F81L

T4: THAP1 THAP domain D17G (human, UniProt Q9NVV9 1-81, D17G)
T4 sequence: T1 sequence with D17G

T5: THAP1 THAP domain N12K (human, UniProt Q9NVV9 1-81, N12K)
T5 sequence: T1 sequence with N12K

B1: RRM1 16-bp DNA probe (dsDNA)
DNA 1: GCTTGTGTGGGCAGCG
DNA 2: CGCTGCCCACACAAGC
B2: 14-bp non-specific DNA (ns) (dsDNA)
DNA 1: GATTTGCATTTTAA
DNA 2: TTAAAATGCAAATC

Assays:
THAP1 THAP domain WT [1] = target: T1, THAP1 THAP domain WT; experiment: ITC
THAP1 THAP domain Y8C [2] = target: T2, THAP1 THAP domain Y8C; experiment: ITC
THAP1 THAP domain F81L [3] = target: T3, THAP1 THAP domain F81L; experiment: ITC
THAP1 THAP domain WT [4] = target: T1, THAP1 THAP domain WT; experiment: fluorescence quenching
THAP1 THAP domain Y8C [5] = target: T2, THAP1 THAP domain Y8C; experiment: fluorescence quenching
THAP1 THAP domain D17G = target: T4, THAP1 THAP domain D17G; experiment: fluorescence quenching
THAP1 THAP domain F81L [6] = target: T3, THAP1 THAP domain F81L; experiment: fluorescence quenching
THAP1 THAP domain N12K [7] = target: T5, THAP1 THAP domain N12K; experiment: ITC
THAP1 THAP domain N12K [8] = target: T5, THAP1 THAP domain N12K; experiment: fluorescence quenching

Binder	Kd (THAP1 THAP domain WT [1])	Kd (THAP1 THAP domain Y8C [2])	Kd (THAP1 THAP domain F81L [3])	Kd (THAP1 THAP domain WT [4])	Kd (THAP1 THAP domain Y8C [5])	Kd (THAP1 THAP domain D17G)	Kd (THAP1 THAP domain F81L [6])	Kd (THAP1 THAP domain N12K [7])	Kd (THAP1 THAP domain N12K [8])
B1	540 ± 190 nM	510 ± 100 nM	700 ± 60 nM	150 ± 10 nM	230 ± 20 nM	25 ± 5 nM	100 ± 10 nM		
B2	8930 ± 1280 nM			1800 ± 150 nM				1750 ± 500 nM	400 ± 65 nM
